From publication PMC10249358, “Elucidation of Short Linear Motif-Based Interactions of the FERM Domains of Ezrin, Radixin, Moesin, and Merlin” (Biochemistry, 2023)

Biological target: moesin FERM domain, P26038
Experiment: FP
Conditions: modification not given

moesin FERM domain, P26038, sequence (P26038 2-295): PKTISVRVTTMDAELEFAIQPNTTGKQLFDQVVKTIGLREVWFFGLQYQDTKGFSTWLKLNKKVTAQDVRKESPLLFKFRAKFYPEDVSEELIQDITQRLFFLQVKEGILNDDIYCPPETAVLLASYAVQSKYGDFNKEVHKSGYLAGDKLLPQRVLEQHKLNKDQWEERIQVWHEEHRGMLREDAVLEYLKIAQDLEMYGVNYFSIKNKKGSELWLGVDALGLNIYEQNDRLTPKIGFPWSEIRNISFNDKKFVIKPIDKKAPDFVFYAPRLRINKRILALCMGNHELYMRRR

Row | Binder | Kd [nM]
1 | LEFADAYDFRSSYPDH | 85000
2 | LEAADFYDFRSSYPDH | 2300
3 | LEFADFYDFRSSAPDH | 2800

Further binders by falling Kd, results first:

Row | Kd [nM] | Binder
4 | 50000 | LEFADFYAFRSSYPDH
5 | 110 | TNGAYSVNTFKEHHST
6 | 100 | TNGYYSVNTFKEHHST
